Assay results taken from patent publication US20210095028A1 (NANJING LEGEND BIOTECH, published 2021).

T1: human TIGIT over-expressed on cells (human, UniProt Q495A1 22-244)
T1 construct: also called CHO-K1/human TIGIT cells; CHO cells expressing human TIGIT
T1 sequence: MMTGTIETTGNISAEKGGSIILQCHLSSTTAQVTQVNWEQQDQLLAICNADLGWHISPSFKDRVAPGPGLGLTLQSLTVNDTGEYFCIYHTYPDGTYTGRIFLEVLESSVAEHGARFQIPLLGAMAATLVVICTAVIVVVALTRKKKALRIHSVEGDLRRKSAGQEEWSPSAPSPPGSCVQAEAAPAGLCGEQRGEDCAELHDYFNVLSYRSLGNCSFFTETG

T2: Human TIGIT protein with HIS tag (human, UniProt Q495A1 22-141)
T2 construct: A soluble analyte is probably only the extracellular part; also called human TIGIT recombinant protein; not shown: HIS tag
T2 sequence: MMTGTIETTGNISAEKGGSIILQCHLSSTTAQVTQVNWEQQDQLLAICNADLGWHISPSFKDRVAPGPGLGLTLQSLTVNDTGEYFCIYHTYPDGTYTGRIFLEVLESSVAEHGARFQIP

B1: 64G1E9B4VH1.M1_VL1.M1 (antibody, human IgG1, V domains shown)
VH: EVQLVQSGAEVKKPGSSVKVSCKASGYTFTEHVIHWVRQAPGQGLEWMGGFNPNHGGTIYNQIFRGRVTITADKSTSTAYMELSSLRSEDTAVYYCARAAKLLFAMDYWGQGTTVTVSS
VL: DIQMTQSPSSLSASVGDRVTITCRASQHVSNAVVWYQQKPGKAPKLLIYSPSYRFTGVPSRFSGSGSGTDFTLTISSLQPEDFATYYCQQHYSTPWTFGGGTKVEIK
notes: Humanized antibody, variable domains fused with the constant region of human IgG1; also called 64G1VH1.M1_VL1.M1
B2: 100C4E7D11VH1_VL1 (antibody, V domains shown)
VH: EVQLVESGGGLVKPGGSLRLSCAASGFTFSFYTMSWVRQAPGKGLEWVSTISSGGGSTYYSDSVKGRFTISRDNAKNSLYLQMNSLRAEDTAVYYCARSLPVDYWGQGTTVTVSS
VL: EIVLTQSPGTLSLSPGERATLSCTASSSVSSTYLHWYQQKPGQAPRLLIYSTSNLASGIPDRFSGSGSGTDFTLTISRLEPEDFAVYYCHLYHHSPYTFGGGTKVEIK
notes: Humanized antibody, variable domains fused with the constant region of human IgG1; also called 100C4VH1_VL1
B3: 64G1E9B4 chimeric (antibody, V domains shown)
VH: EVQLQQSGPELVKPGASVKISCKTSGYTFTEHVIHWVKQSHGKSLEWIGGFNPNHDGTIYNQIFRGKATLTVDKSSSTAYMELRSLTSEDSAVYFCTRAAKLLFAMDYWGQGTSVTVSS
VL: DIVMTQSHKFMSTSIGDRVSITCKASQHVSNAVVWYQQKPGQSPKLLIYSPSYRFTGVPDRFTGSGSGTDFTFTISSVQAEDLAVYYCQQHYSTPWTFGGGTKLEIK
notes: also called 64G1 Chimeric
B4: 100C4E7D11 chimeric (antibody, V domains shown)
VH: EVMLVESGGGLVKPGGSLKLSCAASGFTFSFYTMSWVRQTPEKRLEWVATISSGGGSTYYSDSVKGRFTISRDNAKNNLYLQMTSLRSEDTALYYCSRSLPVDYWGQGTTLTVSS
VL: QIVLTQSPAIMSASLGERVTMTCTASSSVSSTYLHWYQQKPGSSPKLWIYSTSNLASGVPARFSGSGSGTSYSLTISSMEAEDAATYYCHLYHHSPYTFGGGTKLEIK
notes: also called 100C4 Chimeric

molecular target: T1, human TIGIT over-expressed on cells; assay: FACS, CHO-K1 cells over-expressing human TIGIT
Description: (§1) Binding affinities of the chimeric anti-human TIGIT monoclonal antibodies and the humanized anti-human TIGIT monoclonal antibodies to human or cynomolgus TIGIT over-expressed on CHO-K1 cells were determined using a fluorescence-activated cell sorting (FACS)-based assay. […] The mixture was equilibrated for 30 minutes at room temperature and washed three times with FACS buffer (PBS containing 1% BSA). iFluor labeled goat anti-mouse IgG as the secondary antibody was added and incubated at room temperature for 45 min. Finally, the cells were washed 3 time with PBS, and the signal was read by FACS BD Calibur. Data was analyzed with PRISM™ (GraphPad Software, San Diego, Calif.) using non-linear regression and EC₅₀ values were calculated.

Bottom (best-fit)	EC50 [nM]	Top (best-fit)	Binder
1530	0.43	24700	B1
4110	1.15	25200	B2
3600	0.47	23400	B3
4160	0.58	25600	B4

molecular target: T1, human TIGIT over-expressed on cells; assay: cell-based or functional assay

IL-2 secretion in T cell activation, Bottom (best-fit)	IL-2 secretion in T cell activation, EC50 [nM]	IL-2 secretion in T cell activation, Top (best-fit)	Binder
209	0.63	467	B1
217	5.21	435	B2
204	0.66	462	B3
247	2.14	419	B4

molecular target: T3, cynomolgus TIGIT over-expressed on CHO-K1 cells (cynomolgus, UniProt A0A7N9I9V4 89-312); assay: FACS, CHO-K1 cells over-expressing cynomolgus TIGIT
T3 construct: whole, on cells; also called CHO-K1/cynomolgus TIGIT cells
Description: as §1

T3 sequence (A0A7N9I9V4 entry or part of it): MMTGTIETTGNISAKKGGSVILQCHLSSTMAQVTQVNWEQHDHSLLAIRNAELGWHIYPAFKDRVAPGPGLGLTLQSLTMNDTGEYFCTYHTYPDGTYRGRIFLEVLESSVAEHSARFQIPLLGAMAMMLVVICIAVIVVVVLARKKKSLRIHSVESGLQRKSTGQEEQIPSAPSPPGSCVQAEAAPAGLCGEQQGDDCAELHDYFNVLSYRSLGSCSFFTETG

Bottom (best-fit)	EC50 [nM]	Top (best-fit)	Binder
5530	0.91	29200	B1
2830	2.85	29800	B2
3920	1.33	25600	B3
4880	1.03	23700	B4

molecular target: T1, human TIGIT over-expressed on cells; assay: competition FACS, CHO cells expressing human TIGIT; competitor PVR recombinant protein
Description: (§2) To assess the competitive binding on human TIGIT between the chimeric anti-human TIGIT monoclonal antibodies or the humanized anti-human TIGIT monoclonal antibodies and PVR, the chimeric anti-human TIGIT monoclonal antibody or the humanized anti-human TIGIT monoclonal antibody samples were prepared (starting at 300 nM, ≤3-fold serial dilution with 10 concentrations). CHO cells expressing human TIGIT were dissociated from adherent culture flasks and mixed with varying concentrations of each chimeric anti-human TIGIT monoclonal antibody or the humanized anti-human TIGIT monoclonal antibody and 5 μg/ml […] fusion protein having a biotin label. The mixture was equilibrated for 30 minutes at room temperature and washed three times with FACS buffer (PBS containing 1% BSA). PE/Cy5 Streptavidin secondary antibody was then added to the mixtures and incubated for 15 minutes at room temperature. Subsequently, the cells were washed with FACS buffer and analyzed by flow cytometry. Data was analyzed with PRISM™ (GraphPad Software, San Diego, Calif.) using non-linear regression, and IC₅₀ values were calculated (FIG. 7 and Table 13).

Bottom (best-fit)	Top (best-fit)	Binder
201	508	B1
150	755	B2
197	772	B3
170	678	B4

molecular target: T1, human TIGIT over-expressed on cells; assay: competition FACS, CHO cells expressing human TIGIT; competitor PVR recombinant protein (column headed EC50, text says IC50)
Description: as §2

IC50 [nM]	Binder
0.35	B1
1.29	B2
0.51	B3
0.49	B4

molecular target: T2, Human TIGIT protein with HIS tag; assay: SPR Biacore T200; antibody Fc-captured, TIGIT-His analyte
Description: Binding kinetics of the chimeric anti-human TIGIT monoclonal antibodies and the humanized anti-human TIGIT monoclonal antibodies to human TIGIT were determined using a Surface Plasmon Resonance (SPR) biosensor, BIACORE® T200 (GE Healthcare). Different concentrations of the chimeric anti-human TIGIT monoclonal antibodies or humanized anti-human TIGIT monoclonal antibodies were prepared starting at 50 nM with a 3-fold serial dilution. Each chimeric anti-human TIGIT monoclonal antibody or each humanized anti-human TIGIT monoclonal antibody was immobilized on the sensor chip through the Fc capture method. Human TIGIT protein with a HIS tag was used as the analyte. The dissociation (kd) and association (kₐ) rate constants were obtained using the BIACORE® T200 evaluation software. The apparent equilibrium dissociation constants (KD) were calculated from the ratio of kd over kₐ.

Kd [nM]	koff [s⁻¹]	kon [M⁻¹ s⁻¹]	Binder
0.17	0.0001	630000	B1
0.57	0.00035	610000	B2
0.07	6.4e-05	910000	B3
0.17	0.00016	910000	B4
